From patent publication US20170355744A1 (published 2017) come the findings set out here.

The experiment has as its target T1, Untagged Naglu (human, UniProt P54802 24-743).
T1 construct: also called untagged Naglu protein; alpha-N-acetylglucosaminidase
T1 sequence: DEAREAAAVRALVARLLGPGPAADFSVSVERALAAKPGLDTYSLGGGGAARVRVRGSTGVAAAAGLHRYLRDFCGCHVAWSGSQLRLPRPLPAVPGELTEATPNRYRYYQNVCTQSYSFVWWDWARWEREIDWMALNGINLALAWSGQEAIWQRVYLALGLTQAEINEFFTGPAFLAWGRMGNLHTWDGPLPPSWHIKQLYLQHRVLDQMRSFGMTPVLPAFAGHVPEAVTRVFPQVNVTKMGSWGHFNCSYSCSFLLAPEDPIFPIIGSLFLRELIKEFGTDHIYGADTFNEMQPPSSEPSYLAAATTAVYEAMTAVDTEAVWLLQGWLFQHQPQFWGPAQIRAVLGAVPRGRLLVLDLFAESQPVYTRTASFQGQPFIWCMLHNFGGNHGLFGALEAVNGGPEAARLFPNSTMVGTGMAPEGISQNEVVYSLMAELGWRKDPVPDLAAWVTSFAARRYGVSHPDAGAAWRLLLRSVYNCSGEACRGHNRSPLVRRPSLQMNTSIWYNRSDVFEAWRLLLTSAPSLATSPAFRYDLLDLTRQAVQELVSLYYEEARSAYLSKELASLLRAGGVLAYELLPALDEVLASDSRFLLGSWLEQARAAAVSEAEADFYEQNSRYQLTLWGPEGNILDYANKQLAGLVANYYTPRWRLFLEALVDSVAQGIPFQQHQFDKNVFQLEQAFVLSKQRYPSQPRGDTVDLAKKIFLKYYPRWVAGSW
In words: IGF2R competitive binding assay (displacement of biotinylated IGF-II from plate-coated IGFIIR domains 10-13). On the procedure:
To measure the ability of the Naglu fusion protein constructs to bind to the IGF-II receptor a competitive binding assay is carried out. A fragment of the IGFIIR involved with IGF-II binding (domains 10-13, named protein 1288) is coated onto 96-well plates. Biotinylated IGF-II is incubated with the receptor in the presence of increasing amounts of competitors: either control IGF-II (non-biotinylated), or fusion protein sample (containing an IGF-II-derived GILT epitope tag). Receptor-bound biotinylated IGF-II is detected with streptavidin conjugated to horseradish peroxidase (HRP) and a chemiluminescent HRP substrate. The ability of the fusion protein to inhibit binding of biotinylated IGF-II to the IGFIIR is calculated from inhibition curves and reported as an IC₅₀ value (concentration required to achieve 50% binding inhibition).
For the assay, IGFIIR is coated in a white Reacti-bind plate (Pierce, Cat#437111) at 0.5 μg/well in a volume of 100 μl (69.6 nM/per well) in coating buffer. The plate is sealed and incubated overnight at room temperature. The plate is then washed 3× with wash buffer, blocked with blocking buffer and then washed again 3× with wash buffer (300 μl/well).

B1: fragment of the IGFIIR involved with IGF-II binding (domains 10-13, named protein 1288) (receptor, UniProt P11717 1367-1989, looked up)
chain: TECSFKDGAGNSFDLSSLSRYSDNWEAITGTGDPEHYLINVCKSLAPQAGTEPCPPEAAACLLGGSKPVNLGRVRDGPQWRDGIIVLKYVDGDLCPDGIRKKSTTIRFTCSESQVNSRPMFISAVEDCEYTFAWPTATACPMKSNEHDDCQVTNPSTGHLFDLSSLSGRAGFTAAYSEKGLVYMSICGENENCPPGVGACFGQTRISVGKANKRLRYVDQVLQLVYKDGSPCPSKSGLSYKSVISFVCRPEARPTNRPMLISLDKQTCTLFFSWHTPLACEQATECSVRNGSSIVDLSPLIHRTGGYEAYDESEDDASDTNPDFYINICQPLNPMHGVPCPAGAAVCKVPIDGPPIDIGRVAGPPILNPIANEIYLNFESSTPCLADKHFNYTSLIAFHCKRGVSMGTPKLLRTSECDFVFEWETPVVCPDEVRMDGCTLTDEQLLYSFNLSSLSTSTFKVTRDSRTYSVGVCTFAVGPEQGGCKDGGVCLLSGTKGASFGRLQSMKLDYRHQDEAVVLSYVNGDRCPPETDDGVPCVFPFIFNGKSYEECIIESRAKLWCSTTADYDRDHEWGFCRHSNSYRTSSIIFKCDEDEDIGRPQVFSEVRGCDVTFEWKTKVVCPP
notes: domain: domains 10-13; Coated on the plate at 0.5 ug/well; also called IGF2R
In the case of B1, the binding result is “no binding”.
